For test [1], the target named is BSA (control) (bovine) (UniProt P02769). Description: ELISA, BSA control wells, sFlt at 1800 ng/mL, detected with RD-1 + RD-2 anti-sFlt.
Test [2] has the same target. Description: ELISA, BSA control wells, sFlt at 600 ng/mL, detected with RD-1 + RD-2 anti-sFlt. (An ELISA detects its analyte on a solid surface through an enzyme-linked reagent.)
Test [3] has the same target. The experiment in a line: ELISA, BSA control wells, sFlt at 66.67 ng/mL, detected with RD-1 + RD-2 anti-sFlt.
Test [4] shares this target. The experiment in a line: ELISA, BSA control wells, sFlt at 200 ng/mL, detected with RD-1 + RD-2 anti-sFlt.
Test [5] has the same target. The experiment in a line: ELISA, BSA control wells, sFlt at 600 ng/mL, detected with RD-1 + RD-2 anti-sFlt. This is another data set of the same source.
For test [6] the target is unchanged. The experiment in a line: ELISA, BSA control wells, sFlt at 200 ng/mL, detected with RD-1 + RD-2 anti-sFlt. The source holds these as a separate data set.
For test [7] the target is unchanged. The experiment in a line: ELISA, BSA control wells, sFlt at 66.67 ng/mL, detected with RD-1 + RD-2 anti-sFlt. This is another data set of the same source.

Chain of BSA (control) (bovine) (P02769 25-607 limits assumed): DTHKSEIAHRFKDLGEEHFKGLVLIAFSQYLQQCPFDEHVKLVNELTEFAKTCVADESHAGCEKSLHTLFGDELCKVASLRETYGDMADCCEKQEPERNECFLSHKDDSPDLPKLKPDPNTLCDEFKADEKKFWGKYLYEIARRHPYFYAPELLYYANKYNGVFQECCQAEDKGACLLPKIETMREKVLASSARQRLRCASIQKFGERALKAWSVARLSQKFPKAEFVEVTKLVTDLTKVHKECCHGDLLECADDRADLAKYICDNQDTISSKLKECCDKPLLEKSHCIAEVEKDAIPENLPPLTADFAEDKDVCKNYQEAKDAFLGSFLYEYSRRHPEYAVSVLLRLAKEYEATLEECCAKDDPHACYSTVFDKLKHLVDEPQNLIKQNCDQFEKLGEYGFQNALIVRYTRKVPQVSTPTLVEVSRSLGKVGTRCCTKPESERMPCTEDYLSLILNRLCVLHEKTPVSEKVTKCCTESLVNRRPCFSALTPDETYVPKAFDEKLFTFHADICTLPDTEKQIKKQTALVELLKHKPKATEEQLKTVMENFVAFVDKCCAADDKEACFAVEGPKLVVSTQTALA
Chain of Full length sFlt (soluble fms-like tyrosine kinase 1, sFlt-1), Scios Inc. Lot# 9225-89 (from UniProt P17948 27-656) (receptor) (P17948 other isoform, or with tags, fused parts or gaps limits assumed): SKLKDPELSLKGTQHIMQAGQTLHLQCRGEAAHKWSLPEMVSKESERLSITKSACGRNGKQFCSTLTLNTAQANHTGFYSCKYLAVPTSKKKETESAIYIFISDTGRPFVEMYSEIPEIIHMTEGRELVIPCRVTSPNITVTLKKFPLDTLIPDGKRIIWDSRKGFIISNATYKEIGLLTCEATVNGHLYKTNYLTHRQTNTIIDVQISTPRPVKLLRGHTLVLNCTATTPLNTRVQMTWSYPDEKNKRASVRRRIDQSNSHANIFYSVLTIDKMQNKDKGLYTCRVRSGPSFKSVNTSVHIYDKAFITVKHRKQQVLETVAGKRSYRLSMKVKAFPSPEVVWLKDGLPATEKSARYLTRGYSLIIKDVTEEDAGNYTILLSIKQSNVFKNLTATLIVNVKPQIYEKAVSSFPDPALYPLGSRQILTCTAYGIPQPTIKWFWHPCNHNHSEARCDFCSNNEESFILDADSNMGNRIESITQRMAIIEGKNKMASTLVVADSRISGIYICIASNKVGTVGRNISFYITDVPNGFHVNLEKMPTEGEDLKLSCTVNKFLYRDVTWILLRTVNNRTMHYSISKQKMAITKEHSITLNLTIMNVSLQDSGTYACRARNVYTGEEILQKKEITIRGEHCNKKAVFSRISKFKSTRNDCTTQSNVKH
Chain of Full length sFlt (soluble fms-like tyrosine kinase 1, sFlt-1), Scios Inc. Lot# 9225-89 (from UniProt P17948 27-656) (P17948 other isoform, or with tags, fused parts or gaps limits assumed): as above

Consider “Full length sFlt (soluble fms-like tyrosine kinase 1, sFlt-1), Scios Inc. Lot# 9225-89 (from UniProt P17948 27-656)”, for which the OD at 492 nm with BSA (control) (bovine) [1] worked out at 0.004 OD.
Regarding “Full length sFlt (soluble fms-like tyrosine kinase 1, sFlt-1), Scios Inc. Lot# 9225-89 (from UniProt P17948 27-656) (receptor)”, the OD at 492 nm is 0.008 OD in the test with BSA (control) (bovine) [2]; 0.003 OD in the test with BSA (control) (bovine) [3]; 0.009 OD with BSA (control) (bovine) [1]; 0.005 OD in the test with BSA (control) (bovine) [4]; 0.006 OD with BSA (control) (bovine) [5]; 0.01 OD with BSA (control) (bovine) [6]. Also, the OD at 492 nm with BSA (control) (bovine) [7] is 0.02 OD.

(Values after patent US20090176264A1.)
